Experimental data from patent publication US20210198375A1 (NANJING UMAB BIOPHARMA, published 2021).
Like-named read-outs stand apart in the source and are kept apart here.

Columns and labels:
[1] = molecular target: T1, Interferon receptors on Daudi cells (UniProt P17181); test: cell-based or functional assay
T1 sequence (looked up) 1: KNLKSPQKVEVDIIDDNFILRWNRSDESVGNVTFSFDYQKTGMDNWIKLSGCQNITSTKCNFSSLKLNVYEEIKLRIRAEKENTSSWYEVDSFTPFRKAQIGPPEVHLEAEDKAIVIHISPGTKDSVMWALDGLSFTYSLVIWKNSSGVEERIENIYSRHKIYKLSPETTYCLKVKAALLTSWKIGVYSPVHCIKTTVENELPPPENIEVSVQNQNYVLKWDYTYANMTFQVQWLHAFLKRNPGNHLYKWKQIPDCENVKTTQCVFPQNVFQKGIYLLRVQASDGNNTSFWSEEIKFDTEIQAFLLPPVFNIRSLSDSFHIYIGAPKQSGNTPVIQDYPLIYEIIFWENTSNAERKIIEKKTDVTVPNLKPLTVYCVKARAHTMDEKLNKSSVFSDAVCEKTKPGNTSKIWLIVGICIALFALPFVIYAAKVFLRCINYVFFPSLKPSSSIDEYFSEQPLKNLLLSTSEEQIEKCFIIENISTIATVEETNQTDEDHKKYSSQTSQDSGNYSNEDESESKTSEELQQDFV
T1 sequence (looked up) 2: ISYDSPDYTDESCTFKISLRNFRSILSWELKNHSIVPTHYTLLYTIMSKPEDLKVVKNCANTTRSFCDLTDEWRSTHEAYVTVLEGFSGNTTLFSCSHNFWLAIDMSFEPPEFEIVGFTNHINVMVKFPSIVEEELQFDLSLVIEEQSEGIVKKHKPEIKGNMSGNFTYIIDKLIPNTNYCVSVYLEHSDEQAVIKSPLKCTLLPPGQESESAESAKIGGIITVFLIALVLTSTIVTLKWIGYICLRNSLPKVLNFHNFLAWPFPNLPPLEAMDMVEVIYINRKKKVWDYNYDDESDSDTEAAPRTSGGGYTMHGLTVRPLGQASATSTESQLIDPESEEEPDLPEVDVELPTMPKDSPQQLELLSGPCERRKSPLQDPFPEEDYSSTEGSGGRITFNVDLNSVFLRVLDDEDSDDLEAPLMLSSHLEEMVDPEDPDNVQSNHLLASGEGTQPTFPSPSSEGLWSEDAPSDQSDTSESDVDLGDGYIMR

[2] = molecular target: T2, human OX40 expressed on CHO cells (human, UniProt P43489 29-277); test: FACS on CHO cells transfected with human OX40
T2 construct: whole, on cells; also called hsOX40; CHO-hOX40
T2 sequence (looked up): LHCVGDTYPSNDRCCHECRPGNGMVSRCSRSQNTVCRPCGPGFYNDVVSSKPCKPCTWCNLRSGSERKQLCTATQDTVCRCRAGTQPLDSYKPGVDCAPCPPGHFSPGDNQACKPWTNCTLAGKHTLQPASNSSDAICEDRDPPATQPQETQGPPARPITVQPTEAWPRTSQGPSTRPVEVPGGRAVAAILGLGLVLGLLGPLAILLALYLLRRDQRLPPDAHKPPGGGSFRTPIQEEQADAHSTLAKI

[3] = molecular target: T3, OX40 on reporter cells (Jurkat-OX40-NFκB-luciferase; HEK293-OX40-NFκB-Luc) (UniProt P43489 29-277); test: cell-based or functional assay
T3 sequence (looked up): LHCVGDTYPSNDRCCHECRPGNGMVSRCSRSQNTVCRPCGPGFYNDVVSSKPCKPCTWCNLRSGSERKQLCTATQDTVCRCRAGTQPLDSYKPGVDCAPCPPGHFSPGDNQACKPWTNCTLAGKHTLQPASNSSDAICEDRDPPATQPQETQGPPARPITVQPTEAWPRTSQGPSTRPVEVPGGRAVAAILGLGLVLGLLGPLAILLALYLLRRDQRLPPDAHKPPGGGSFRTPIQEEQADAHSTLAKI

[4] = molecular target: T3, OX40 on reporter cells …; test: cell-based or functional assay; remark: listed apart in the source
[5] = molecular target: T3, OX40 on reporter cells …; test: cell-based or functional assay; remark: listed apart in the source
[6] = molecular target: T4, human OX40 protein (human, UniProt P43489 29-216, limits assumed); test: ELISA, plate coated with human OX40 protein, goat-anti-human IgG HRP
T4 construct: also called TNFRSF4; CD134
T4 sequence (looked up): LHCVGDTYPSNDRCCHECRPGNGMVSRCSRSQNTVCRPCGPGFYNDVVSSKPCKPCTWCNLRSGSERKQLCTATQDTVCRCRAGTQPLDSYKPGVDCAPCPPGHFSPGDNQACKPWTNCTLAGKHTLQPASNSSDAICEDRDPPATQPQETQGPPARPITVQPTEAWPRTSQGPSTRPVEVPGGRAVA
Description: The next day, the plate was first washed 3 times with 300 μL PBST (Tween 20: 0.5‰), then blocked with 5% BSA/PBS at 100 μL/well for 2 h, and shaken at room temperature, followed by washing 3 times with 300 μL PBST. Gradient dilutions of the fusion protein samples were prepared in PBS, and then added to the 96-well plate at 100 μL/well; the plate was shaken for 1 h at room temperature, followed by washing 3 times with 300 μL PBST. A secondary antibody goat-anti-human IgG HRP solution was prepared and added to the 96-well plate at 100 μL/well, and the plate was shaken for 1 h at room temperature, followed by washing 4 times with 300 μL PBST. TMB was added at 100 μL/well to develop color for 20 min. 0.6N H₂SO₄ was added at 100 μL/well to stop the color development, and the OD values were determined at 450 nm.

[7] = molecular target: T4, human OX40 protein; test: ELISA, plate coated with human OX40 protein, mouse-anti-human IgG HRP
Description: The next day, the plate was first washed 3 times with 300 μL PBST (Tween 20: 0.5‰), then blocked with 5% BSA/PBS at 100 μL/well for 2 h, and shaken at room temperature, followed by washing 3 times with 300 μL PB ST. Gradient dilutions of the fusion protein samples were prepared in PBS, and then added to the 96-well plate at 100 μL/well; the plate was shaken for 1 h at room temperature, followed by washing 3 times with 300 μL PBST. A mouse-anti-human IgG HRP (GenScript Biotech Corp., Art. No. A01854) solution was prepared and added into the 96-well plate at 100 μL/well, and the plate was shaken for 1 h at room temperature, followed by washing 4 times with 300 μL PBST. TMB was added at 100 μL/well to develop color for 20 min. 0.6N H₂SO₄ was added at 100 μL/well to stop the color development, and the OD (optical density) values were determined at 450 nm.

Molecule: pegylated interferon α2 (Pegberon, Xiamen Amoytop Biotech, Batch No. 201811JS19) (ligand)
- proliferation inhibitory activity on Daudi cells, IC50 [1]: 10600 nM

B1: MT01-L1 (antibody, V domains shown)
VH: EVQLQQSGPELVKPGASVKMSCKASGYTFTSYVMHWLKQKPGQGLEWIGYINPYNDGTKYNEKFKGKAKLTSDKSSSTAYMELSSLTSEDSAVYYCANYYGSKFAMDYWGQGTSVTVSS
VL: DIQMTQTTSSLSASLGDRVTISCRASQDISNYLSWYQRKPDGAVKLLIYYTSRLHSGVPSRFSGSGSGADYSLTISNLEQEDIATYFCQQGITLPWTFGGGTKLEIKR
- EC50 [2]: 660 ng/mL

B2: MT01-C1 (antibody, human IgG1, V domains shown)
VH: EVQLVQSGAEVKKPGESLKISCKASGYTFTSYVMHWLRQMPGKGLEWMGYINPYNDGTKYNEKFKGQVTISSDKSISTAYLQWSSLKASDTAMYYCANYYGSKFAMDYWGQGTMVTVSS
VL: DIQMTQSPSSVSASVGDRVTITCRASQDISNYLSWYQQKPGGAVKLLIYYTSRLHSGVPSRFSGSGSGTDYTLTISSLQPEDFATYFCQQGITLPWTFGQGTKVEIK
notes: also called OX40 antibody MT01-C1; OX40 mAb MT01-C1
- activate NFκB-luciferase reporter, EC50 [3]: 0.0452 ng/mL
- Activation activity of OX40 signaling pathway EC50 [4]: 0.178 nM
- Activation activity of OX40 signaling pathway EC50 [5]: 0.325 nM
- EC50 [6]: 298 ng/mL

B3: MT01-C1 as described in Example 11 (human IgG4 (S228P), κ) (antibody, V domains shown)
VH: EVQLVQSGAEVKKPGESLKISCKASGYTFTSYVMHWLRQMPGKGLEWMGYINPYNDGTKYNEKFKGQVTISSDKSISTAYLQWSSLKASDTAMYYCANYYGSKFAMDYWGQGTMVTVSS
VL: DIQMTQSPSSVSASVGDRVTITCRASQDISNYLSWYQQKPGGAVKLLIYYTSRLHSGVPSRFSGSGSGTDYTLTISSLQPEDFATYFCQQGITLPWTFGQGTKVEIK
notes: also called OX40 antibody MT01-C1; MT01-C1 mAb
- EC50 [7]: 1.21 nM
